Bridge positions count the residues as written; N and C are the ends. Ends that are not written are not given here. Peptide text beside a SMILES is read from it.
Experiments:
[1] = biological target: T1, LFA-1 binding to ICAM-1 (JY cells) (Homo sapiens, UniProt P05362); assay: LFA-1:ICAM-1 dependent cell aggregation assay, slightly modified (360 minute incubations); format: cell-based; details: cell aggregation
T1 construct: endogenous in cells; host or cells: JY cells
Description: (§1) JY cells were maintained in RPMI-1640 medium supplemented with 10% fetal bovine serum at 37° C. in an atmosphere containing 5% CO2 in air. The aggregation of JY cells, which is dependent on LFA-1 binding to ICAM-1, was determined as previously reported (Shannon, J. P., Silva, M. V., Brown, D. C. & Larson, R. S. (2001) Novel cyclic peptide inhibits intercellular adhesion molecule-1-mediated cell aggregation. J. Pept. Res. 58, 140-150; Larson, R. S., Brown, D. C. & Sklar, L. A.(1997) Retinoic acid induces aggregation of the acute promyelocytic leukemia cell lineNB-4 by utilization of LFA-1 and ICAM-2.Blood 90, 2747-2756; Rothlein, R. & Springer, T. A. (1986) The requirement for lymphocyte function associated antigen 1 in homotypic leukocyte adhesion stimulated by phorbol ester. J. Exp.Med. 163, 1132-1149). Briefly, JY cells were washed twice with serum-free media and resuspended at a concentration of 4×10^5 cells/mL. Cells were then preincubated with various concentrations of peptides or mAb for 15 minutes at room temperature. A 50 μL aliquot of cells was seeded in each well of a 96-well flat-bottomed microtiterplate followed by the addition of either peptide or mAb to a final volume of 100 μL. Cells were allowed to aggregate at 37° C. in humidified air containing 5% CO2. Within each well, the number of aggregates and the total number of free (single) cells were counted by inverted phase microscopy. Percent aggregation, P, was then determined as follows: P=100(1−Ff/Fi), where Ff (Fi) is the final (initial) number of free cells. Percent aggregation was then used to calculate percent inhibition, I, as follows: […], where Pi (Pc) is the percent aggregation with modulatory peptide (control). The constants for 50% inhibition (IC50) were derived from a linear fit to the percent inhibition at four concentrations (50 μm, 100 μm, 500 μm, and 1 mm) of inhibitory peptide. Each experiment was performed at least three times, with each condition performed in duplicate. The data are reported as the mean values and the SDs of each IC50.
The same general procedure was used as described in Example 1.
The functional activity of each IP02 derivative was measured in a slightly-modified version of the previously described cell aggregation assay (Shannon, J. P., Silva, M. V., Brown, D. C., & Larson, R. S. (2001). Novel cyclic peptide inhibits intercellular adhesion molecule-1-mediated cell aggregation. J. Pept. Res. 58, 140-150; Merchant, S. H., Gurule, D. M., Larson, R. S. (2003). Amelioration of ischemia-reperfusion injury with cyclic peptide blockade of ICAM-1. Am. J. Physiol. Heart Circ. 284,H1260-1268; Larson, R. S., Brown, D. C., and Sklar, L. A. (1997). Retinoic acid induces aggregation of the acute promyelocytic leukemia cell line NB-4 by utilization of LFA-1 and ICAM-2. Blood 90, 2747-2756; Rothlein, R. and Springer, T. A. (1986). The requirement for lymphocyte function-associated antigen 1 in homotypic leukocyte adhesion stimulated by phorbol ester. J. Exp. Med. 163, 1132-1149). Longer incubations (360 minutes) were used here instead of the earlier 120 minute incubations in order to increase the observed differences among peptide antagonists. Of all the amino acid substitutions, replacement of R6 with K, to produce IP02-K6, improved the IC50 the most. […] Alternatively, replacement of L2 or L3 with V (IP02-V2 and IP02-V3) or A8 with L (IP02-L8) abrogated activity, with IC50s exceeding 1,000 μM.

[2] = biological target: T1, LFA-1 binding to ICAM-1 (JY cells); assay: LFA-1:ICAM-1 dependent JY cell aggregation assay (2 hours); format: cell-based
Description: Cysteine-constrained peptides, synthesized by Biopeptide (San Diego, Calif., USA), were isolated using high-performance liquid chromatography, and their correct mass was confirmed by mass spectrometry. The peptides were dissolved in 5% dimethylsulfoxide in phosphate-buffered saline (PBS) at concentrations of 10 mm and stored at −80° C. until use. The mAb directed against LFA-1 (TS1/18) was purified from a hybridoma line ([…], Manassas, Va.) as described previously (Oj, V. T. & Herzenberg, T. (1980) Immunoglobulin-producing hybrid celllines. In Selected Methods in Cellular Immunology (Mishell, B. B. & Shiigi, S. M.,eds), H. H. Freeman, New York; Larson, R. S., Brown, D. C. & Sklar, L. A.(1997) Retinoic acid induces aggregation of the acute promyelocytic leukemia cell lineNB-4 by utilization of LFA-1 and ICAM-2.Blood 90, 2747-2756; Rothlein, R. & Springer, T. A. (1986) The requirement for lymphocyte function associated antigen 1 in homotypic leukocyte adhesion stimulated by phorbol ester. J. Exp.Med. 163, 1132-1149).
as §1

[3] = biological target: T2, Intercellular adhesion molecule-1 (ICAM-1) on JY cells (UniProt P05362 28-532, limits assumed); assay: cell-based or functional assay
T2 sequence (P05362 28-532 limits assumed): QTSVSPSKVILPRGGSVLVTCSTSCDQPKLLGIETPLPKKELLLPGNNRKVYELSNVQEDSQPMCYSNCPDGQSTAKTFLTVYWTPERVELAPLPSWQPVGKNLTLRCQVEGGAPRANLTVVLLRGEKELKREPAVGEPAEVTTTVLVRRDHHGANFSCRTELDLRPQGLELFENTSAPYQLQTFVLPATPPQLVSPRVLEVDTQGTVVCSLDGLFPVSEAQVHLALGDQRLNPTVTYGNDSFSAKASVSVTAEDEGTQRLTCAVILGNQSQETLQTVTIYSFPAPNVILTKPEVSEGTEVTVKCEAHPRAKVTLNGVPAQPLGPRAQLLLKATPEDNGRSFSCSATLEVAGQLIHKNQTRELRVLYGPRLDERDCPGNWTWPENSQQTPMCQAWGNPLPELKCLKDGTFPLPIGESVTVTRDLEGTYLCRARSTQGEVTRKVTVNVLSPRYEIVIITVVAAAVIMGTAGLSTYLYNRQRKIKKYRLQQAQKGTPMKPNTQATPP

[4] = biological target: T2, Intercellular adhesion molecule-1 …; assay: cell-based or functional assay; remark: listed apart in the source

T1 sequence (P05362 28-532): as the sequence (P05362 28-532 limits assumed) above

Row | Molecule | IC50, inhibition of JY cell aggregation, 360 minute incubation [3] | IC50, inhibition of JY cell aggregation at 2 hours [4] | other results
1 | CSCC[C@@H]1NC(=O)[C@H](CCCNC(=N)N)NC(=O)[C@H](C(C)C)NC(=O)[C@H](CC(C)C)NC(=O)[C@@H](N)CSSC[C@@H](C(=O)O)NC(=O)[C@H](C)NC(=O)[C@H](CO)NC(=O)[C@H](CCCNC(=N)N)NC1=O [IP02-V3] (H-CLVRMRSAC-OH; disulfide 1-9; N-terminus and C-terminus assumed) | – | – | IC50 [1]: > 1000 µM
2 | CC[C@H](C)[C@@H]1NC(=O)[C@H](CO)NC(=O)[C@H](C)NC(=O)[C@H](CCSC)NC(=O)[C@H](CCCNC(=N)N)NC(=O)[C@H](CC(C)C)NC(=O)[C@H](CC(C)C)NC(=O)[C@@H](N)CSSC[C@@H](C(=O)O)NC1=O [IP01-A6, CLLRMASIC] (H-CLLRMASIC-OH; disulfide 1-9; N-terminus and C-terminus assumed) | – | – | IC50 [2]: > 1000 µM
3 | CC[C@H](C)[C@@H]1NC(=O)[C@H](CC(C)C)NC(=O)[C@@H](N)CSSC[C@@H](C(=O)O)NC(=O)[C@H](C)NC(=O)[C@H](CO)NC(=O)[C@H](CCCNC(=N)N)NC(=O)[C@H](CCSC)NC(=O)[C@H](CCCNC(=N)N)NC1=O [IP02-13, CLIRMRSAC] (H-CLIRMRSAC-OH; disulfide 1-9; N-terminus and C-terminus assumed) | – | – | IC50 ([1]; unit μm [sic]): ~700 µM
4 | CSCC[C@@H]1NC(=O)[C@H](CCCNC(=N)N)NC(=O)[C@H](CC(C)C)NC(=O)[C@H](CC(C)C)NC(=O)[C@@H](N)CSSC[C@@H](C(=O)O)NC(=O)[C@H](CC(C)C)NC(=O)[C@H](CO)NC(=O)[C@H](CCCNC(=N)N)NC1=O [IP02-L8, CLLRMRSLC] (H-CLLRMRSLC-OH; disulfide 1-9; N-terminus and C-terminus assumed) | – | – | IC50 [1]: > 1000 µM
5 | CC[C@H](C)[C@@H]1NC(=O)[C@H](CO)NC(=O)[C@H](CCCNC(=N)N)NC(=O)[C@H](C)NC(=O)[C@H](CCCNC(=N)N)NC(=O)[C@H](CC(C)C)NC(=O)[C@H](CC(C)C)NC(=O)[C@@H](N)CSSC[C@@H](C(=O)O)NC1=O [IP01-A5, CLLRARSIC] (H-CLLRARSIC-OH; disulfide 1-9; N-terminus and C-terminus assumed) | – | – | IC50 [2]: > 1000 µM
6 | CSCC[C@@H]1NC(=O)[C@H](CCCNC(=N)N)NC(=O)[C@H](CC(C)C)NC(=O)[C@H](C(C)C)NC(=O)[C@@H](N)CSSC[C@@H](C(=O)O)NC(=O)[C@H](C)NC(=O)[C@H](CO)NC(=O)[C@H](CCCNC(=N)N)NC1=O [IP02-V2] (H-CVLRMRSAC-OH; disulfide 1-9; N-terminus and C-terminus assumed) | – | – | IC50 [1]: > 1000 µM
7 | CC[C@H](C)[C@@H]1NC(=O)[C@H](C)NC(=O)[C@H](CCCNC(=N)N)NC(=O)[C@H](CCSC)NC(=O)[C@H](CCCNC(=N)N)NC(=O)[C@H](CC(C)C)NC(=O)[C@H](CC(C)C)NC(=O)[C@@H](N)CSSC[C@@H](C(=O)O)NC1=O [IP01-A7, CLLRMRAIC] (H-CLLRMRAIC-OH; disulfide 1-9; N-terminus and C-terminus assumed) | – | – | bioactivity after alanine substitution (in words) ([2]; listed as S7 to alanine substitution): retained significant bioactivity
8 | CSCC[C@@H]1NC(=O)[C@H](CCCNC(=N)N)NC(=O)[C@H](CC(C)C)NC(=O)[C@H](CC(C)C)NC(=O)[C@@H](N)CSSC[C@@H](C(=O)O)NC(=O)[C@H](C(C)C)NC(=O)[C@H](CO)NC(=O)[C@H](CCCNC(=N)N)NC1=O [IP02-V8] (H-CLLRMRSVC-OH; disulfide 1-9; N-terminus and C-terminus assumed) | – | – | IC50 [1]: 700 µM; IC50 ([1]; unit μm [sic]): ~700 µM
9 | CSCC[C@@H]1NC(=O)[C@H](CCCCN)NC(=O)[C@H](CC(C)C)NC(=O)[C@H](CC(C)C)NC(=O)[C@@H](N)CSSC[C@@H](C(=O)O)NC(=O)[C@H](C)NC(=O)[C@H](CO)NC(=O)[C@H](CCCNC(=N)N)NC1=O [IP02-K4, CLLKMRSAC] (H-CLLKMRSAC-OH; disulfide 1-9; N-terminus and C-terminus assumed) | – | – | IC50 [1]: 105 to 190 µM
10 | CC[C@H](C)[C@@H]1NC(=O)[C@@H](N)CSSC[C@@H](C(=O)O)NC(=O)[C@H](C)NC(=O)[C@H](CO)NC(=O)[C@H](CCCNC(=N)N)NC(=O)[C@H](CCSC)NC(=O)[C@H](CCCNC(=N)N)NC(=O)[C@H](CC(C)C)NC1=O [IP02-12, CILRMRSAC] (H-CILRMRSAC-OH; disulfide 1-9; N-terminus and C-terminus assumed) | – | – | IC50 [1]: 105 to 190 µM
11 | CLLRMKSAC (disulfide 1-9) [IP02-K6] | 90 µM | – | fold smaller IC50 than IP01 (JY cell aggregation, 360 minutes) [3]: ~6 fold
12 | CLARMRSIC (disulfide 1-9) [IP01-A3] | – | > 1000 µM | –
13 | CLLRMRSLC (disulfide 1-9) [IP02-L8] | > 1000 µM | – | –
14 | CLLRMRSIC (disulfide 1-9) [IP01 (inhibitory peptide-01)] | 580 µM | 530 µM | –
15 | CLLRMRSAC (disulfide 1-9) [IP02] | 480 µM | 210 µM | fold improvement of activity over IP01 (JY cell aggregation) [3]: 2 fold; fold improvement of inhibition over IP01 (JY cell aggregation IC50) [3]: 2.5 fold
16 | CLLRARSIC (disulfide 1-9) [IP01-A5] | – | > 1000 µM | –
17 | CLLRMRSVC (disulfide 1-9) [IP02-V8] | ~700 µM | – | –
18 | CLIRMRSAC (disulfide 1-9) [IP02-I3] | ~700 µM | – | –
19 | CLLRMRAIC (disulfide 1-9) [IP01-A7] | – | 740 µM | –
20 | CALRMRSIC (disulfide 1-9) [IP01-A2] | – | > 1000 µM | –
21 | CLVRMRSAC (disulfide 1-9) [IP02-V3] | > 1000 µM | – | –
22 | CLLRMASIC (disulfide 1-9) [IP01-A6] | – | > 1000 µM | –
23 | CVLRMRSAC (disulfide 1-9) [IP02-V2] | > 1000 µM | – | –
